# Reference: patent US20160319032A1 (MEDLMMUNE, published 2016)
# B1: sc 58 (antibody, V domains shown)
# VH: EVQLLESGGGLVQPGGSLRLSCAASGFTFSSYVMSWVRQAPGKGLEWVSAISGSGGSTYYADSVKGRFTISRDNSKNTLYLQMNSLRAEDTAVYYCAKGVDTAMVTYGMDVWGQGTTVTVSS
# VL: SYELTQPPSVSVSPGQTARITCSGDALPKKYAYWYQQKSGQAPVLVIYDDSKRPSGIPERFSGSSSGTMATLTISGAQVEDEADYYCYSTDSSGNHRVFGGGTKLTVL
# notes: lambda light chain; also called sc 058
# B2: sc 161 (antibody, V domains shown)
# VH: EVQLVQSGAEVKKPGESLKISCKGSGYSFTSYWIGWVRQMPGKGLEWMGIIYPGDSDTRYSPSFQGQVTISADKSISTAYLQWSSLKASDTAMYYCARHGIAAAGFYYYYMDVWGQGTTVTVSS
# VL: EIVLTQSPDTLSLSPGERASLSCRASQNVNRNYLVWYQQKPGQAPRLLIYGTSNRATGIPDRFSGSGSGTDFTLTISRLEPEDFAVYYCQQCGSLPFTFGPGTKVDIKR
# notes: kappa light chain
# B3: sc 277 (antibody, V domains shown)
# VH: EVQLVQSGAEVKKPGESLKISCKGSGYSFPSYWIGWVRQMPGKGLEWMGIIYPGDSDTRYSPSFQGQVTISADKSISTAYLQWSSLKASDTAMYYCARHPMEDGMDVWGQGTTVTVSS
# VL: SYELTQPPSVSVSPGQTARITCSGDALPKKYAFWYQQKSGQAPVLVIYDDNKRPSGIPERFSGSSSGTMATLTITGAQVEDEADYYCYSTDSSGHHVFGGGTKLTVL
# notes: lambda light chain
# B4: sc 97 (antibody, V domains shown)
# VH: EVQLVQSGAEVKKPGESLKISCKGSGYSFTSYWIGWVRQMPGKGLEWMGIIYPGDSDTRYSPSFQGQVILSADKSISTAYLQWSSLKASDTAMYYCARHDESSGYYYVFDIWGQGTMVTVSS
# VL: SYELTQPPSVSVSPGQTARITCSGDALPKKYAYWYQQKSGQAPVLVIYEDIKRPSGIPERFSGSSSGTMATLTISGAQVEDEADYYCYSTDSSGNHWVFFGGGTKLTVL
# notes: lambda light chain; also called sc 097
# B5: sc 320 (antibody, V domains shown)
# VH: EVQLVESGGGLVKPGGSLRLSCAASGYTFTNYIMHWVRQAPGKGLEWVSSISISSSYIYYADSVKGRFTISRDNAKNSLYLQMNSLRAEDTAVYYCARDPVPLERRDYYYGMDVWGQGTTVTVSS
# VL: QSVLTQPPSMSAAPGQKVTISCSGSSSNIGNNYVSWYQQLPGTAPKLLIYDNNKRPSGIPDRFSGSKSGTSATLGITGLQTGDEADYYCGTWDSSLSAGVFGGGTKLTVL
# notes: lambda light chain
# B6: sc 49 (antibody, V domains shown)
# VH: QVQLQESGPGLVKPSQTLSLTCTVAGGSIRSGDYYWSWIRQHPGKGLEWIGNIYYSGSTYYNPSLKSRITISVATSRNQFSLKLTSVTAADTAVYYCARGGAITIFGVFDYWGQGTLVTVSS
# VL: not shown
# notes: kappa light chain; also called sc 049
# Molecular target: T1, human αVβ6 integrin on cells (human, UniProt P06756 31-1048; P18564 22-788)
# T1 sequence (P06756 31-1048, chain 1 of 2): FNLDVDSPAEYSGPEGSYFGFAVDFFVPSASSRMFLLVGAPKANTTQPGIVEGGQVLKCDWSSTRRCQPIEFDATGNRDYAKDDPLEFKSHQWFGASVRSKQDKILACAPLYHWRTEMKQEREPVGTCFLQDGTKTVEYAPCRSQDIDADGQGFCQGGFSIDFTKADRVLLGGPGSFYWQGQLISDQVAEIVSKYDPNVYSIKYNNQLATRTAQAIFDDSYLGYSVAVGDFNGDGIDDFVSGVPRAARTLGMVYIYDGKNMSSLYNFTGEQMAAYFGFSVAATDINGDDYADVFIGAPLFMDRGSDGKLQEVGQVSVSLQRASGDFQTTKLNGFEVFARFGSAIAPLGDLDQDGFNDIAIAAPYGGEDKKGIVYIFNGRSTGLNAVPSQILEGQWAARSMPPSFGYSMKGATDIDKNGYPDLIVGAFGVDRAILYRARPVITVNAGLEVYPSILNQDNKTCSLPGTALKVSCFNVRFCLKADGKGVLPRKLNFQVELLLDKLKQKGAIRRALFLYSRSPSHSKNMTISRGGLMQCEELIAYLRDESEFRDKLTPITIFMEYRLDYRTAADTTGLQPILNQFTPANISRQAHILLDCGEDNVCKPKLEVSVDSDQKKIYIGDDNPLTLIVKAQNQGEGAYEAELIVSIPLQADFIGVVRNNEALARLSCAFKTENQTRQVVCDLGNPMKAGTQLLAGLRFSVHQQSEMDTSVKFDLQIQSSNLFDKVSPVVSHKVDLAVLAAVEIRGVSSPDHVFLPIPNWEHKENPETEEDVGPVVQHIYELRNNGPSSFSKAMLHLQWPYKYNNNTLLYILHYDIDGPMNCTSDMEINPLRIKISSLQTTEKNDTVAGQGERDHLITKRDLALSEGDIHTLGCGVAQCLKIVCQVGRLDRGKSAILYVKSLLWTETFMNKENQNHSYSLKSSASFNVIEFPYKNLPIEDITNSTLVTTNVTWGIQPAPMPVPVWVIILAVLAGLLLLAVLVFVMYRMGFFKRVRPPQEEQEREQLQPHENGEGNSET
# T1 sequence (P18564 22-788, chain 2 of 2): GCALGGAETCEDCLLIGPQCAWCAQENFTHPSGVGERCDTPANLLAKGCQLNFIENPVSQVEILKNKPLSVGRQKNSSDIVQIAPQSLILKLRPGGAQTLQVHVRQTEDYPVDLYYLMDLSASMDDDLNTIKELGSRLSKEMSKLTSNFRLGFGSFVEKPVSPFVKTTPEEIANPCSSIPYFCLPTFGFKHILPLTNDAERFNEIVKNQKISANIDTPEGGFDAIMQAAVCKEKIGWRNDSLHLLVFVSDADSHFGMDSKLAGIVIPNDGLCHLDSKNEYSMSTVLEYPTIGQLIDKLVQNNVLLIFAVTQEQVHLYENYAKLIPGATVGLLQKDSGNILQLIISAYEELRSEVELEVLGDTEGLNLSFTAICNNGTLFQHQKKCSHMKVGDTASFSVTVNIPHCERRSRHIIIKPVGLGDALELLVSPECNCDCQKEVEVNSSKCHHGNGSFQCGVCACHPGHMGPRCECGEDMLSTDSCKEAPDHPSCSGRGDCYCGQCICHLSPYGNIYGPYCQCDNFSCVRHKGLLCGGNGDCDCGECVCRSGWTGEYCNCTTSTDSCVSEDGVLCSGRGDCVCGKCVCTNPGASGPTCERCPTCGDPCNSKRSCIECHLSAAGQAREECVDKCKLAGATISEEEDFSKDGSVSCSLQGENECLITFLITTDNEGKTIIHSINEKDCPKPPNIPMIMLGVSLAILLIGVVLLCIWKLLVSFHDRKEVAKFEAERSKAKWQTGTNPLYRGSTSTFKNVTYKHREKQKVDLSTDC
# Assay: cell-based or functional assay
Binder,Assay 1 % Inhibition of adhesion,Assay 2 % Inhibition of adhesion,Average % Inhibition of adhesion
B1,77%,46%,62%
B2,98%,106%,102%
B3,98%,101%,100%

# Molecular target: T1, human αVβ6 integrin on cells
# Assay: cell-based or functional assay
# Remark: another data set of the same source
Binder,"Estimated IC50, adhesion assay, n = 1","Estimated IC50, adhesion assay, n = 2","Estimated IC50, adhesion assay, n = 3"
B1,4.07 µg/mL,2.03 µg/mL,3.26 µg/mL
B2,2.41 µg/mL,0.137 µg/mL,–
B3,1.46 µg/mL,0.54 µg/mL,0.72 µg/mL

# Molecular target: T1, human αVβ6 integrin on cells
# Assay: FMAT, supernatant, HEK 293 cells stably overexpressing αVβ6
# Method: Cells in Freestyle media (Invitrogen) were seeded into 384-well FMAT plates in a volume of 50 μL/well at a density of 2500 cells/well for the stable transfectants, and at a density of 22,500 cells/well for the parental cells, and cells were incubated overnight at 37° C. […] Plates were then incubated for one hour at 4° C., and fluorescence was read using an FMAT macroconfocal scanner (Applied Biosystems).
row,Binder,FMAT FL1XCount
1,B2,16700
2,B3,10700

# Molecular target: T2, cynomolgus αVβ6 on cells (cynomolgus)
# T2 construct: whole, on cells; also called macaque αVβ6; Mac AVB6
# Assay: FACS, supernatant, HEK-293 transfected with cynomolgus αV and β6
# Method: HEK-293 cells were transiently transfected with cynomolgus αV and cynomolgus β6. After 48 hours, the cells were collected and resuspended in FACS buffer to reach a final concentration of approximately 50,000 cells in 100 μL.
# The cells in the plate were pelleted at 1500 rpm for 3 minutes, and then resuspended in 100 μL FACS buffer. The pelleting step was repeated, and the FACS buffer supernatant was removed. The harvested antibody-containing supernatants, or control primary antibodies were added in a volume of 50 μL and the cells were resuspended. […] The plate was incubated on ice for 45 minutes, after which 100 μL FACS buffer was added to dilute the primary antibody. The cells were then pelleted by centrifuging at 1500 rpm for 3 minutes, and the pellet was resuspended in 100 μL FACS buffer. The pelleting step was repeated, and the FACS buffer supernatant was removed. Cells were then resuspended in the appropriate secondary antibody (5 μg/ml) with 7AAD dye (10 μg/ml), and stained on ice for 7 minutes. Then 150 μL of FACS buffer was added and the cells were pelleted at 1500 rpm for 3 minutes, after which the cells were washed in 100 μL FACS buffer, pelleted, and then resuspended in 250 μL buffer and added to FACS tubes. Samples were analyzed on a high throughput FACS machine and analyzed using Cell Quest Pro software.
Binder,% Cells Shifted,GeoMean
B1,25%,22.8
B4,35%,37
B5,19%,33.5
B6,23%,30.2

# Molecular target: α4β1 integrin on J6.77 cells (UniProt P13612 34-1032; P05556 21-798)
# Assay: cell-based or functional assay
row,Binder,"Percent Inhibition of J6.77 adhesion to CS-1 peptide, 5 ug/ml"
1,B1,-14%
2,B2,12%
3,B3,-17%
4,B4,-7%
5,B5,-8%
